Test results taken from patent publication EP1100818B1 (WHITEHEAD INSTITUTE FOR BIOMEDICAL RESEARCH, dated 2013).

What was measured:
[1] = molecular target: N36 peptide of HIV-1 gp41 (HIV-1); assay: circular dichroism at 222 nm, thermal melt, 10 µM of each peptide, PBS pH 7.0
[2] = molecular target: N36 peptide of HIV-1 gp41 (HIV-1); assay: circular dichroism at 222 nm, thermal melt
[3] = molecular target: T1, HIV-1 HXB2 envelope glycoprotein (gp41 subunit, N-helix coiled-coil) (HIV-1 (HXB2), UniProt P04578 512-856); assay: cell-based or functional assay
[4] = molecular target: T1, HIV-1 HXB2 envelope glycoprotein (gp41 …); assay: cell-based or functional assay; remark: listed apart in the source

C34 Met^629→Ala (peptide)
Tm (apparent melting temperature of the N36/C34 complex) [1]: 66 °C

C34 Trp^631→Abu (peptide)
Tm (apparent melting temperature of the N36/C34 complex) [2]: 43 °C

C34 peptide of HIV-1 gp41, wildtype
Tm (apparent melting temperature of the N36/C34 complex) [1]: 66 °C

C34 Trp^631→Nal (peptide)
Tm (apparent melting temperature of the N36/C34 complex) [2]: 62 °C

C34 Trp^631→Phe (peptide)
Tm (apparent melting temperature of the N36/C34 complex) [2]: 59 °C

C34 Trp^631→Ala (peptide)
Tm (apparent melting temperature of the N36/C34 complex) [1]: 37 °C

C34 Trp^631→Gly (peptide)
Tm (apparent melting temperature of the N36/C34 complex) [2]: 35 °C

C34 Arg^633→Ala (peptide)
Tm (apparent melting temperature of the N36/C34 complex) [1]: 65 °C

C34 Trp^631→Leu (peptide)
Tm (apparent melting temperature of the N36/C34 complex) [2]: 50 °C

C34 Ile^635→Ala (peptide)
Tm (apparent melting temperature of the N36/C34 complex) [1]: 55 °C

C34 Trp^631→Val (peptide)
Tm (apparent melting temperature of the N36/C34 complex) [2]: 43 °C

C34 Trp^628→Ala (peptide)
Tm (apparent melting temperature of the N36/C34 complex) [1]: 53 °C

Ac-WMELDREINNYTSLIHSLIEESQNQQEKNEQELL-NH2 [C34 Trp^631→Leu]
IC50 (nanomolar) cell fusion [3]: 3.2 nM | IC50 (nanomolar) virus entry [3]: 5.3 nM

Ac-WMEWDAEINNYTSLIHSLIEESQNQQEKNEQELL-NH2 [C34 Arg^633→Ala]
IC50 (nM) cell fusion [4]: 0.76 nM | IC50 (nM) viral entry [4]: 2.6 nM

Ac-WMEADREINNYTSLIHSLIEESQNQQEKNEQELL-NH2 [C34 Trp^631→Ala]
decrease in inhibitory activity against wildtype C34 [3]: ~30 fold

Ac-WMEVDREINNYTSLIHSLIEESQNQQEKNEQELL-NH2 [C34 Trp^631→Val]
IC50 (nanomolar) cell fusion [3]: 4.5 nM | IC50 (nanomolar) virus entry [3]: 13 nM

Ac-WMEGDREINNYTSLIHSLIEESQNQQEKNEQELL-NH2 [C34 Trp^631→Gly]
IC50 (nanomolar) cell fusion [3]: 25 nM | IC50 (nanomolar) virus entry [3]: 38 nM

Ac-WMEWDREANNYTSLIHSLIEESQNQQEKNEQELL-NH2 [C34 Ile^635→Ala]
decrease in inhibitory activity against wildtype C34 [3]: ~2 fold | IC50 (nM) cell fusion [4]: 0.96 nM | IC50 (nM) viral entry [4]: 4.1 nM

Ac-WMEFDREINNYTSLIHSLIEESQNQQEKNEQELL-NH2 [C34 Trp^631→Phe]
IC50 (nanomolar) cell fusion [3]: 1.6 nM | IC50 (nanomolar) virus entry [3]: 3.6 nM
